Test results reported in the supplement of paper PMC10724198.
± gives the standard deviation of the averaged measurements.

Tested on: Saccharomyces cerevisiae
Test: protein stability index of tFT-peptide fusion (C-terminal peptide) (PSI (0-1 scale)); higher = more stable (slower turnover)
Conditions: temperature: 30 C
Experimental: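 MPS profiling in S. cerevisiae of the yeast C-terminome library: the last 12 aa of each annotated ORF are fused to the C-terminus of a sfGFP-mCherry timer, after a GGGS linker. Cells are FACS-sorted into 8 mCherry/sfGFP bins and deep-sequenced. PSI runs from 0 (unstable) to 1 (stable); wild type and das1Δ backgrounds, two technical replicates each.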

[1] = genetic background: das1 deletion

| Sequence | protein stability index [1] | protein stability index (genetic background: wild type) |
| --- | --- | --- |
| SFYDNSLQTWIV [RRT2 C-terminal 12 aa] | 0.7484 ± 0.0042 | 0.752 ± 0.029 |
| DSMRGNSRNNMF [EBS1 C-terminal 12 aa] | 0.7083 ± 0.0062 | 0.717 ± 0.021 |
| QFFLAPKFNDEE [POL30 C-terminal 12 aa] | 0.712 ± 0.032 | 0.705 ± 0.023 |
| IALAEHRVERSN [CLB3 C-terminal 12 aa] | 0.718 ± 0.05 | 0.701 ± 0.033 |
| SLKNYHNNTAQA [DBP6 C-terminal 12 aa] | 0.688 ± 0.031 | 0.68 ± 0.0075 |
| SPISVDFSSYLS [NBP1 C-terminal 12 aa] | 0.734 ± 0.015 | 0.72 ± 0.058 |
| VMKAKRKFNPYT [RRP7 C-terminal 12 aa] | 0.6859 ± 0.0013 | 0.6974 ± 0.0025 |
| FFLEECHRIGSK [HEM12 C-terminal 12 aa] | 0.726 ± 0.015 | 0.7467 ± 0.007 |
| TSNNIFGSDQKY [MNN14 C-terminal 12 aa] | 0.694 ± 0.016 | 0.741 ± 0.037 |
| VTPEEDEEEDEE [RPL22A C-terminal 12 aa] | 0.68 ± 0.03 | 0.676 ± 0.062 |
| LDAILLDIICND [MDM1 C-terminal 12 aa] | 0.697 ± 0.0082 | 0.735 ± 0.045 |
| TLNVSNISHYSL [GAL80 C-terminal 12 aa] | 0.7033 ± 0.0016 | 0.704 ± 0.0075 |
| LINGTRIMNSIS [VPS33 C-terminal 12 aa] | 0.684 ± 0.01 | 0.532 ± 0.0095 |
| QREEALISLNDW [REV3 C-terminal 12 aa] | 0.726 ± 0.016 | 0.713 ± 0.025 |
| AKAQSQALVTGM [PCL6 C-terminal 12 aa] | 0.6806 ± 0.0011 | 0.685 ± 0.035 |
| YDLVEKCVWRGI [ORC3 C-terminal 12 aa] | 0.707 ± 0.041 | 0.716 ± 0.022 |
| TSGFCSLETSAE [YER023C-A C-terminal 12 aa] | 0.697 ± 0.0079 | 0.735 ± 0.057 |
| ERDGYYYLKRSS [VHT1 C-terminal 12 aa] | 0.715 ± 0.019 | 0.694 ± 0.02 |
| IARLEKLLSGGV [LEA1 C-terminal 12 aa] | 0.692 ± 0.017 | 0.686 ± 0.0076 |
| NQGSDVSFNEED [TOP2 C-terminal 12 aa] | 0.709 ± 0.02 | 0.685 ± 0.045 |
| VFTRLYSTLWSY [YDR149C C-terminal 12 aa] | 0.6867 ± 0.0054 | 0.145 ± 0.0086 |

| Sequence | protein stability index [1] | protein stability index (genetic background: wild type) |
| --- | --- | --- |
| RLYVSRLFISKL [ATP8 C-terminal 12 aa] | 0.801 ± 0.042 | 0.671 ± 0.14 |
| LLSLPSSTLTKS [YIL068W-A C-terminal 12 aa] | 0.703 ± 0.025 | 0.702 ± 0.0086 |
| VREYNKYCEAIL [VPS13 C-terminal 12 aa] | 0.687 ± 0.01 | 0.667 ± 0.033 |
| VAQNPVLAAVIA [KAP123 C-terminal 12 aa] | 0.455 ± 0.013 | 0.466 ± 0.015 |
| DGSGKYFLKHDS [KTR2 C-terminal 12 aa] | 0.706 ± 0.0039 | 0.708 ± 0.04 |
| GLNEVTRLIKGL [HTS1 C-terminal 12 aa] | 0.695 ± 0.011 | 0.641 ± 0.027 |
| FARFITAIFHHI [MKC7 C-terminal 12 aa] | 0.73 ± 0.019 | 0.153 ± 0.0061 |
| TLWNDNTSYPFL [PDR3 C-terminal 12 aa] | 0.756 ± 0.015 | 0.7571 ± 0.0029 |
| LADEEDAIHDEL [PDI1 C-terminal 12 aa] | 0.68604 ± 0.00055 | 0.678 ± 0.023 |
| RMDEENYEEEFC [UBP11 C-terminal 12 aa] | 0.716 ± 0.02 | 0.707 ± 0.034 |
| VQRVILITHLNV [YOL083C-A C-terminal 12 aa] | 0.6054 ± 0.0053 | 0.616 ± 0.0084 |
| SEEKRRLAPADI [YOL019W-A C-terminal 12 aa] | 0.68 ± 0.02 | 0.691 ± 0.024 |
| KQKALRGEFGAF [RNA15 C-terminal 12 aa] | 0.709 ± 0.011 | 0.688 ± 0.01 |
| SIYDGTEEKIVY [DAL4 C-terminal 12 aa] | 0.689 ± 0.018 | 0.705 ± 0.01 |
| HCLSNSASHSCG [YGR018C C-terminal 12 aa] | 0.675 ± 0.014 | 0.64 ± 0.014 |
| EGVSIIESTFIN [YLR225C C-terminal 12 aa] | 0.693 ± 0.012 | 0.68 ± 0.051 |
| KRPPLPNMSFSW [YLL019W-A C-terminal 12 aa] | 0.776 ± 0.025 | 0.728 ± 0.028 |
| INFHSGSIFDAC [ENV11 C-terminal 12 aa] | 0.717 ± 0.029 | 0.7009 ± 0.0015 |
| ISISHSAVPNIV [YAL069W C-terminal 12 aa] | 0.678 ± 0.0075 | 0.729 ± 0.037 |
| GGFSTEFNSCDT [MLF3 C-terminal 12 aa] | 0.719 ± 0.019 | 0.721 ± 0.023 |
| YNITQQILQFLH [VAC8 C-terminal 12 aa] | 0.701 ± 0.024 | 0.327 ± 0.0072 |

| Sequence | protein stability index [1] | protein stability index (genetic background: wild type) |
| --- | --- | --- |
| HAERERENMIYD [YGL108C C-terminal 12 aa] | 0.7122 ± 0.0035 | 0.695 ± 0.029 |
| NAIKNWTGVNVK [MIC26 C-terminal 12 aa] | 0.7 ± 0.0014 | 0.695 ± 0.0088 |
| LLLQFPPYLPHD [LAG2 C-terminal 12 aa] | 0.75 ± 0.019 | 0.7442 ± 0.0048 |
| KKKYKFHQGLSI [SOL2 C-terminal 12 aa] | 0.699 ± 0.028 | 0.695 ± 0.02 |
| LKSIYTSERITI [RAD61 C-terminal 12 aa] | 0.707 ± 0.04 | 0.667 ± 0.025 |
| GFADLDNFMSSL [HAA1 C-terminal 12 aa] | 0.686 ± 0.039 | 0.689 ± 0.033 |
| KTTPRNVELFGM [DXO1 C-terminal 12 aa] | 0.678 ± 0.021 | 0.693 ± 0.018 |
| NPPISVSVTGDE [SRT1 C-terminal 12 aa] | 0.687 ± 0.0084 | 0.6978 ± 0.0036 |
| MKRSASYTGAKV [TPS2 C-terminal 12 aa] | 0.7 ± 0.02 | 0.709 ± 0.043 |
| VAAKIAALAGQQ [RPL5 C-terminal 12 aa] | 0.708 ± 0.026 | 0.717 ± 0.028 |
| AEETAVFTLPNV [GGA2 C-terminal 12 aa] | 0.7266 ± 0.0034 | 0.694 ± 0.0082 |
| PLTLISLLFAFI [YPS1 C-terminal 12 aa] | 0.619 ± 0.021 | 0.612 ± 0.0015 |
| SSASPEVDCRCG [YLR444C C-terminal 12 aa] | 0.705 ± 0.0094 | 0.7312 ± 0.0057 |
| SLCMEAGLVNEN [YCF1 C-terminal 12 aa] | 0.6959 ± 0.0021 | 0.663 ± 0.037 |
| GSVCFIMDYFTG [VPS62 C-terminal 12 aa] | 0.706 ± 0.013 | 0.677 ± 0.015 |
| SGSGNSSKSNCC [SEC4 C-terminal 12 aa] | 0.691 ± 0.025 | 0.674 ± 0.018 |
| VARLKDESENVW [COX16 C-terminal 12 aa] | 0.689 ± 0.018 | 0.732 ± 0.041 |
| EKVNEILRSTEK [GCD14 C-terminal 12 aa] | 0.69 ± 0.0098 | 0.717 ± 0.0097 |
| KDNSVGKILNST [BOP3 C-terminal 12 aa] | 0.667 ± 0.018 | 0.71 ± 0.026 |
